Measurements reported in the supplement of paper PMC9233669.
Variants at the floor of the assay were thinned out.

What was measured:
[1] = system: biotinyl-Val-oxazolone; test: self-aminoacylation, catalytic enhancement (BVO) (fold over background); higher = more active; k-Seq, kA / k0A0; sequences stand for … in GGGAAUGGAUCCACAUCUACGAAUUC…UUCACUGCAGACUUGACGAAGCUG
Summary of the method: (§1)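 Catalytic enhancement equals the median kA over the uncatalyzed rate, the latter read from the low-activity peak of a bimodal Gaussian fit. Values of kA came from fitting each sequence's fraction reacted to a pseudo-first-order model, with 1000 bootstraps. Reacted RNA was captured with streptavidin and quantified by triplicate qPCR and Illumina sequencing after 90 minutes at room temperature with 2–1250 μM biotinyl-aminoacyl-oxazolone and 0.43 μM mutagenized RNA pools bearing a 21-nt variable region.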

[2] = system: biotinyl-Met-oxazolone; test: self-aminoacylation, catalytic enhancement (BMO) (fold over background); higher = more active; k-Seq, kA / k0A0; sequences stand for … in GGGAAUGGAUCCACAUCUACGAAUUC…UUCACUGCAGACUUGACGAAGCUG
Summary of the method: as §1

[3] = system: biotinyl-Trp-oxazolone; test: self-aminoacylation, catalytic enhancement (BWO) (fold over background); higher = more active; k-Seq, kA / k0A0; sequences stand for … in GGGAAUGGAUCCACAUCUACGAAUUC…UUCACUGCAGACUUGACGAAGCUG
Summary of the method: as §1

[4] = system: biotinyl-Leu-oxazolone; test: self-aminoacylation, catalytic enhancement (BLO) (fold over background); higher = more active; k-Seq, kA / k0A0; sequences stand for … in GGGAAUGGAUCCACAUCUACGAAUUC…UUCACUGCAGACUUGACGAAGCUG
Summary of the method: as §1

[5] = system: biotinyl-Ile-oxazolone; test: self-aminoacylation, catalytic enhancement (BIO) (fold over background); higher = more active; k-Seq, kA / k0A0; sequences stand for … in GGGAAUGGAUCCACAUCUACGAAUUC…UUCACUGCAGACUUGACGAAGCUG
Summary of the method: as §1

[6] = system: biotinyl-Phe-oxazolone; test: self-aminoacylation, catalytic enhancement (BFO) (fold over background); higher = more active; k-Seq, kA / k0A0; sequences stand for … in GGGAAUGGAUCCACAUCUACGAAUUC…UUCACUGCAGACUUGACGAAGCUG
Summary of the method: as §1

| Sequence | self-aminoacylation [1] | self-aminoacylation [2] | self-aminoacylation [3] | self-aminoacylation [4] | self-aminoacylation [5] | self-aminoacylation [6] |
| --- | --- | --- | --- | --- | --- | --- |
| AUUCGACUAGGUCAUCGGGUG [Fam2.2 aminoacylation ribozyme variant] | 3.95 | 7.05 | 6.57 | 8.63 | 4.46 | 47.3 |
| AUUCGCCUAGGACAUCGGGUG [Fam2.2 aminoacylation ribozyme variant] | 3.02 | 3.03 | 3.67 | 4.25 | 2.29 | 19.1 |
| AUUCGCCUAGGUAAUCGGGUG [Fam2.2 aminoacylation ribozyme variant] | 2.43 | 3.62 | 2.77 | 3.88 | 2.02 | 28 |
| AUUCGCCUAGGUCACCGGGUG [Fam2.2 aminoacylation ribozyme variant] | 4.27 | 5.69 | 5.18 | 8.04 | 4.4 | 49 |
| AUUCGCCUAGGUCAUCCGGUG [Fam2.2 aminoacylation ribozyme variant] | 6.7 | 7.99 | 10.3 | 10.9 | 6.5 | 78.7 |
| AUUCGCCUAGGUCAUCGGGCG [Fam2.2 aminoacylation ribozyme variant] | 3.59 | 4.99 | 4.35 | 5.67 | 3.22 | 2.39 |
| AUUCGCCUAGGUCAUCGGGUG [Fam2.2 aminoacylation ribozyme variant] | 23.1 | 45.8 | 37.3 | 63.8 | 26.2 | 364 |
| AUUCGCCUAGGUCUUCGGGUG [Fam2.2 aminoacylation ribozyme variant] | 5.82 | 7.49 | 9 | 8.57 | 5.33 | 55.9 |
| AUUCGCCUGGGUCAUCGGGUG [Fam2.2 aminoacylation ribozyme variant] | 7.88 | 12.9 | 14.1 | 15.8 | 6 | 63.1 |
| AUUCGCCUGGUCAUCGAGUGA [Fam2.1 aminoacylation ribozyme variant] | 3.17 | 4.4 | 6.48 | 4.99 | 3.01 | 16.6 |
| AUUCGCUUAGGUCAUCGGGUG [Fam2.2 aminoacylation ribozyme variant] | 4.24 | 7.02 | 6.47 | 8 | 4.11 | 52.5 |
| AUUCGGCUAGGUCAUCGGGUG [Fam2.2 aminoacylation ribozyme variant] | 3.7 | 3.87 | 4.77 | 4.58 | 3.06 | 24.4 |
| AUUCUACUAGGUCAUCGGGUG [Fam2.2 aminoacylation ribozyme variant] | 3.87 | 5.82 | 5.93 | 7.31 | 3.7 | 41.7 |
| AUUCUCCUAGGCCAUCGGGUG [Fam2.2 aminoacylation ribozyme variant] | 3.74 | 5.37 | 5.32 | 7 | 3.49 | 33 |
| AUUCUCCUAGGGCAUCGGGUG [Fam2.2 aminoacylation ribozyme variant] | 3.73 | 4.21 | 3.58 | 4.7 | 2.92 | 28.7 |
| AUUCUCCUAGGUCAACGGGUG [Fam2.2 aminoacylation ribozyme variant] | 3.61 | 6.57 | 5.38 | 8.2 | 3.79 | 46.7 |
| AUUCUCCUAGGUCAUCCGGUG [Fam2.2 aminoacylation ribozyme variant] | 6.42 | 9.16 | 9.8 | 12.2 | 6.71 | 65.5 |
| AUUCUCCUAGGUCAUCGGGCG [Fam2.2 aminoacylation ribozyme variant] | 3.43 | 3.97 | 4.23 | 5.06 | 3.24 | 13.6 |
| AUUCUCCUAGGUCAUCGGGUG [Fam2.2 aminoacylation ribozyme variant] | 8.06 | 13 | 12.3 | 17.7 | 8.11 | 82.4 |
| AUUCUCCUAGGUCAUCGGGUU [Fam2.2 aminoacylation ribozyme variant] | 3.07 | 3.79 | 3.6 | 4.14 | 3.08 | 14.8 |
| AUUCUCCUAGGUCUUCGGGUG [Fam2.2 aminoacylation ribozyme variant] | 4.77 | 7.28 | 7.39 | 8.25 | 4.96 | 44.1 |
| AUUCUCCUAGGUGAUCGGGUG [Fam2.2 aminoacylation ribozyme variant] | 3.62 | 3.62 | 4.65 | 4.94 | 3.17 | 26.4 |

| Sequence | self-aminoacylation [1] | self-aminoacylation [2] | self-aminoacylation [3] | self-aminoacylation [4] | self-aminoacylation [5] | self-aminoacylation [6] |
| --- | --- | --- | --- | --- | --- | --- |
| AUUCUCCUAGGUUAUCGGGUG [Fam2.2 aminoacylation ribozyme variant] | 3.88 | 6.52 | 6.28 | 8.02 | 4.08 | 40.2 |
| AUUCUCCUAUGUCAUCGGGUG [Fam2.2 aminoacylation ribozyme variant] | 5.62 | 9.01 | 8.54 | 11.6 | 5.5 | 65.9 |
| AUUCUCCUCGGUCAUCGGGUG [Fam2.2 aminoacylation ribozyme variant] | 7.28 | 11.3 | 11.6 | 15.5 | 8.05 | 108 |
| AUUCUCCUGGGUCAUCGGGUG [Fam2.2 aminoacylation ribozyme variant] | 7.53 | 9.61 | 9.42 | 10.8 | 6.05 | 73.6 |
| AUUCUCCUUGGUCAUCGGGUG [Fam2.2 aminoacylation ribozyme variant] | 7.53 | 9.71 | 9.53 | 13.8 | 6.85 | 75 |
| AUUCUGCUAGGUCAUCGGGUG [Fam2.2 aminoacylation ribozyme variant] | 6.13 | 9.46 | 9.84 | 12 | 5.96 | 72.1 |
| AUUGAACUAGGUCAUCGGGUG [Fam2.2 aminoacylation ribozyme variant] | 3.28 | 4.33 | 5.03 | 4.62 | 3.36 | 30 |
| AUUGACCGAGGUCAUCGGGUG [Fam2.2 aminoacylation ribozyme variant] | 4.8 | 8.11 | 8.13 | 11 | 4.88 | 54.8 |
| AUUGACCUAGAUCAUCGGGUG [Fam2.2 aminoacylation ribozyme variant] | 2.54 | 3.5 | 3.51 | 3.59 | 2.54 | 18 |
| AUUGACCUAGGUCAGCGGGUG [Fam2.2 aminoacylation ribozyme variant] | 2.86 | 2.59 | 3.29 | 3.01 | 2.61 | 12.5 |
| AUUGACCUAGGUCAUCUGGUG [Fam2.2 aminoacylation ribozyme variant] | 1.7 | 1.9 | 2.27 | 2.42 | 1.83 | 8.46 |
| AUUGACCUAGGUGAUCGGGUG [Fam2.2 aminoacylation ribozyme variant] | 3.78 | 4.22 | 6.18 | 5.78 | 4.21 | 25.9 |
| AUUGCCCUAGGUCAUCGGGUG [Fam2.2 aminoacylation ribozyme variant] | 5.7 | 8.34 | 7.92 | 11.8 | 5.44 | 62.7 |
| AUUGCCCUGGCCAUCGAGUGA [Fam2.1 aminoacylation ribozyme variant] | 2.74 | 3.8 | 4.87 | 4.96 | 2.48 | 25.2 |
| AUUGCCCUGGUCAGCGAGUGA [Fam2.1 aminoacylation ribozyme variant] | 3.76 | 5.91 | 6.28 | 5.65 | 3.29 | 36.7 |
| AUUGCCCUGGUCAUCGAGUGG [Fam2.1 aminoacylation ribozyme variant] | 10.9 | 30.9 | 29.8 | 29.4 | 9.44 | 197 |
| AUUGCCCUGGUCAUCGAGUGU [Fam2.1 aminoacylation ribozyme variant] | 23.4 | 64.6 | 65.7 | 62.2 | 18.4 | 448 |
| AUUGCCCUGGUCCUCGAGUGA [Fam2.1 aminoacylation ribozyme variant] | 2.05 | 3.5 | 3.66 | 3.42 | 1.94 | 23.4 |
| AUUGUCCUGGUCAUCGAGUGA [Fam2.1 aminoacylation ribozyme variant] | 4.76 | 9.63 | 11.3 | 8.83 | 4.78 | 10 |
| AUUUACCGAGGUCAUCGGGUG [Fam2.2 aminoacylation ribozyme variant] | 4.5 | 8.5 | 6.88 | 11.1 | 4.97 | 64.7 |
| AUUUACCUAGGACAUCGGGUG [Fam2.2 aminoacylation ribozyme variant] | 2.23 | 2.48 | 2.29 | 3.45 | 2.26 | 10.9 |
